In patent US8062638 (Chugai, dated 2011):
Where a chain is given by its changes, count along the chain named.

B1: chimeric H chain / humanized L chain version b antibody (antibody, V domains shown)
VH: EVQLQQSGTNLVRPGALVKLSCKGSGFNIKDYYMHWVKQRPEQGLEWIGGNDPANGHSMYDPKFQGKASITADTSSNTAYLQLSSLTSEDTAVYFCARDSGYAMDYWGQGTSVTVSS
VL: DIQMTQSPSSLSASVGDRVTITCKASQDIKSFLSWYQQKPGKAPKLLIYYATSLADGVPSRFSGSGSGTDYTLTISSLQPEDFATYYCLQHGESPYTFGGGTKVEIK
notes: Expressed from N5KG4P (human IgG4-type); also called ch-b
B2: humanized H chain version a / humanized L chain version a antibody (antibody, V domains shown)
VH: QVQLLESGAVLARPGTSVKISCKASGFNIKDYYMHWVKQRPGQGLEWIGGNDPANGHSMYDPKFQGRAKLTAATSASIAYLEFSSLTNEDSAVYYCARDSGYAMDYWGQGTLVTVSS
VL: B1 VL with Y71F
notes: Expressed from N5KG4P (human IgG4-type)
B3: chimeric H chain / humanized L chain version a antibody (antibody, V domains shown)
VH: B1 VH
VL: B1 VL with Y71F
notes: as for B2
B4: chimeric H chain / humanized L chain version b1 antibody (antibody, V domains shown)
VH: B1 VH
VL: B1 VL with Y36F, A43S, L46T
notes: Expressed from N5KG4P (human IgG4-type); also called ch-b1
B5: chimeric H chain / humanized L chain version b2 antibody (antibody, V domains shown)
VH: B1 VH
VL: B1 VL with G41E, L46S
notes: Expressed from N5KG4P (human IgG4-type); also called ch-b2
B6: chimeric H chain / humanized L chain version c antibody (antibody, V domains shown)
VH: B1 VH
VL: B1 VL with F83I
notes: as for B2
B7: humanized H chain version b / chimeric L chain antibody (antibody, V domains shown)
VH: QVQLLESGAVLARPGTSVKISCKASGFNIKDYYMHWVKQRPGQGLEWIGGNDPANGHSMYDPKFQGRVTITADTSTNTAYMELSSLRSEDTAIYYCARDSGYAMDYWGQGTLVTVSS
VL: DIKMTQSPSSMYASLGERVTITCKASQDIKSFLSWYQQKPWKSPKTLIYYATSLADGVPSRFSGSGSGQDYSLTINNLESDDTATYYCLQHGESPYTFGGGTKLEIK
notes: as for B2
B8: humanized H chain version a / chimeric L chain antibody (antibody, V domains shown)
VH: B2 VH
VL: B7 VL
notes: as for B2
B9: H chain humanized version b / L chain humanized version b antibody (antibody, V domains shown)
VH: B7 VH
VL: B1 VL
notes: also called b-b; humanized antibody version b-b
B10: humanized H chain version c / chimeric L chain antibody (antibody, V domains shown)
VH: QVQLLESGAVLARPGTSVKISCKASGFNIKDYYMHWVKQRPGQGLEWIGGNDPANGHSMYDPKFQGRVTMLVDTSKNQFSLRLSSVTAADTAVYYCARDSGYAMDYWGQGTLVTVSS
VL: B7 VL
notes: as for B2
B11: humanized H chain version b / humanized L chain version a antibody (antibody, V domains shown)
VH: B7 VH
VL: B1 VL with Y71F
notes: Expressed from N5KG4P (human IgG4-type); also called b-a
B12: humanized H chain version b3 / humanized L chain version b antibody (antibody, V domains shown)
VH: B7 VH with K38R, R40A
VL: B1 VL
notes: Expressed from N5KG4P (human IgG4-type); also called b3-b
B13: H chain humanized version i / L chain humanized version b antibody (antibody, V domains shown)
VH: B7 VH with N77S, A79V, Y80F, I93V
VL: B1 VL
notes: also called humanized antibody version i-b
B14: humanized H chain version j / humanized L chain version b antibody (antibody, V domains shown)
VH: B7 VH with I70F, T76A, S84R, E89A, I93V
VL: B1 VL
notes: Expressed from N5KG4P (human IgG4-type); also called j-b
B15: H chain humanized version i / L chain humanized version b2 antibody (antibody, V domains shown)
VH: B7 VH with N77S, A79V, Y80F, I93V
VL: B1 VL with G41E, L46S
notes: also called i-b2; humanized anti-human TF antibody version i-b2
B16: humanized H chain version i / humanized L chain version b1 antibody (antibody, V domains shown)
VH: B7 VH with N77S, A79V, Y80F, I93V
VL: B1 VL with Y36F, A43S, L46T
notes: Expressed from N5KG4P (human IgG4-type); also called i-b1
B17: humanized H chain version e / chimeric L chain antibody (antibody, V domains shown)
VH: B7 VH with T69S, T74E, N77K, T78I, S84N, I93V, Y95F
VL: B7 VL
notes: as for B2
B18: humanized H chain version d3 / humanized L chain version b antibody (antibody, V domains shown)
VH: B7 VH with K38R, R40A, T74E, N77S, T91S, I93V, Y95F
VL: B1 VL
notes: Expressed from N5KG4P (human IgG4-type); also called d3-b
B19: humanized H chain version d / chimeric L chain antibody (antibody, V domains shown)
VH: B7 VH with T74E, N77S, T91S, I93V, Y95F
VL: B7 VL
notes: as for B2
B20: humanized H chain version b / humanized L chain version c antibody (antibody, V domains shown)
VH: B7 VH
VL: B1 VL with F83I
notes: Human IgG4-type (N5KG4P series); also called b-c
B21: humanized H chain version i / chimeric L chain antibody (antibody, V domains shown)
VH: B7 VH with N77S, A79V, Y80F, I93V
VL: B7 VL
notes: as for B2
B22: humanized H chain version d / humanized L chain version b antibody (antibody, V domains shown)
VH: B7 VH with T74E, N77S, T91S, I93V, Y95F
VL: B1 VL
notes: Expressed from N5KG4P (human IgG4-type); also called d-b
B23: humanized H chain version g / humanized L chain version b antibody (antibody, V domains shown)
VH: B7 VH with R67K, V68A, I70L, T74E, T76S, N77S, E82Q, T91S, I93V, Y95S
VL: B1 VL
notes: Expressed from N5KG4P (human IgG4-type); also called g-b
B24: humanized H chain version j / chimeric L chain antibody (antibody, V domains shown)
VH: B7 VH with I70F, T76A, S84R, E89A, I93V
VL: B7 VL
notes: as for B2
B25: humanized H chain version b / humanized L chain version b2 antibody (antibody, V domains shown)
VH: B7 VH
VL: B1 VL with G41E, L46S
notes: Expressed from N5KG4P (human IgG4-type); also called b-b2
B26: chimeric ATR-5 antibody (H chain chimeric/L chain chimeric) (antibody, V domains shown)
VH: B1 VH
VL: B7 VL
notes: Mouse ATR-5 V regions on human C regions; Both IgG1-type (N5KG1(V)) and IgG4-type (N5KG4P) vectors were made; also called ch-ch; chimeric antibody

The binders below were run against T1, human tissue factor (TF) on cells (human, UniProt P13726 33-295) (assay: cell ELISA on fixed J82 cells expressing TF).
T1 construct: also called human TF; the antigen

Binding result, binds:
B1, B2, B3, B4, B5, B6, B7, B8, B9, B10, B11, B12, B13, B14, B15, B16, B17, B18, B19, B20, B21, B22, B23, B24, B25

These binders were tested against T1, human tissue factor (TF) on cells (assay: cell ELISA on fixed J82 cells expressing TF; chimeric antibody is the reference).

Binding result, binds:
B26
